Assay results taken from doi:10.1101/2024.06.26.600898 (bioRxiv, 2024).

Target: H3(1-282)-strep tag Ⅱ-NGL (monkeypox virus (MPXV))
Experiment: BLI; […]; PBS; 100 s association, 120 s dissociation; global fit
Settings: both partners purified

B1: AI-Poxblock723-strep tag Ⅱ-His8 (designed binder)
chain: MGLKKLQELKKKANELGKKAKEALDKGDFEKAKEYIKKGAEATKEYGELSGNKAAIEDGEKAEEVAEEIVKIAKEEKAKERSGGGGSGGGGS
notes: source: E. coli BL21(DE3), pET30a, purified (STarm Streptactin), exchanged into PBS
Question: B1 was tested. Which Kd did it give?
Answer: 9 µM
